The supplement of paper PMC10567573

B1: BCL2L13 (parent)
chain: QSLDQEILLKVKTEIEEELKSLDK

Variants of: B1
Assay: protein stability index of a GFP-peptide fusion (GPS, HEK-293T) (PSI 1-6); higher = more stable
Conditions: c terminus: a fixed tail appended
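Note: lentivirally expressed fusions sorted by FACS into six bins by GFP to DsRed ratio, PSI derived from sequencing read proportions per bin multiplied by bin number.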

Protein stability index of substitutions, site by site:
V11: T 5.51; M 4.95; E 5.63; P 5.61; A 5.53; C 4.77; F 4.83; G 5.36; I 4.19; Q 5.54; R 5.33; H 4.56; K 5.99; L 3.5; W 5.5
E6: M 3.71; V 3.92; T 4.62; W 2.76; G 4.78; N 5.24; I 3.27; P 5.35; D 4.83; Q 4.56; H 4.15; A 3.94; L 3.58; F 3.51; S 4.79; R 3.67; Y 3.47
Q1: G 4.67; I 3.44; Y 3.69; E 4.67; D 4.78; K 4.38; A 5.04; F 3.89; M 4.16; H 4.92; W 3.55; T 4.6; C 4.3; V 3.97; N 4.98; S 4.54; R 4.64; L 3.7
E16: A 4.6; G 5.21; I 4.35; D 5.17; C 3.97; F 3.53; K 4.76; H 4.4
L3: I 4.72; T 4.99; V 5.31; P 4.59; F 4.87; A 5.71; D 5.72; M 5.47; C 4.97; W 4.66; Y 5.07; N 5.64; E 5.63; G 5.16; Q 5.41; S 5.31; K 4.88; H 5.54
Q5: V 3.62; S 4.51; Y 3.38; G 4.95; F 2.83; W 3.67; C 4.67; R 4.14; H 3.64; D 5.28; K 4.7; E 4.8; I 2.95; L 2.99; M 4.05; P 4.4; N 4.61
S2: P 4.71; G 3.38; Q 4.97; C 4.09; F 4.24; K 4.24; W 1.48; E 5.52; M 4.2; N 4.92; T 5.16; R 4.49; Y 4; I 4.91; V 4.16; H 4.75; L 3.95
E14: M 3.7; I 2.92; W 2.47; F 3.06; D 4.7; V 3.48; N 4.58; L 2.82; T 4.46; K 4.15; S 4.99; H 4.26; A 3.4; P 4.31; C 4.03; G 5.05; R 3.85; Q 4.84; Y 3.16
K10: Y 3.85; S 5.01; H 4.66; D 5.67; R 3.09; F 3.67; L 3.19; V 3.53; A 4.98; P 5.4; Q 5.35; N 5.21; M 3.09; C 4.16; W 3.15; E 5.2; T 4.84; G 4.83; I 3.21
L8: R 5.71; K 4.75; G 5.45; H 5.63; W 2.91; Q 5.42; S 5.18; T 5.71; P 5.17; D 5.83; N 5.9; F 5.14; E 5.41; I 4.14; C 5.55; V 5.32; Y 3.76; A 5.62; M 5.37
